Test results: patent US20110212108A1, “NEUREGULIN/ERBB SIGNALING AND INTEGRIN” (THE REGENTS OF THE UNIVERSITY OF CALIFORNIA, priority 2008, published 2011)
“Also recorded” adds a separate entry of the source. Ends that are not written are not given here. GST = glutathione S-transferase

Experiments:
integrin αvβ3 = target: T1, integrin αvβ3 (Homo sapiens, UniProt P05106+P06756); assay: ELISA-type binding of soluble recombinant integrin αvβ3 to immobilized NRG1 fragments; details: soluble αvβ3, 1 mM Mn2+, room temperature
T1 construct: Soluble recombinant integrin αvβ3 (5 μg/ml) was added to the wells; made in house
T1 sequence (P06756 31-992 limits assumed): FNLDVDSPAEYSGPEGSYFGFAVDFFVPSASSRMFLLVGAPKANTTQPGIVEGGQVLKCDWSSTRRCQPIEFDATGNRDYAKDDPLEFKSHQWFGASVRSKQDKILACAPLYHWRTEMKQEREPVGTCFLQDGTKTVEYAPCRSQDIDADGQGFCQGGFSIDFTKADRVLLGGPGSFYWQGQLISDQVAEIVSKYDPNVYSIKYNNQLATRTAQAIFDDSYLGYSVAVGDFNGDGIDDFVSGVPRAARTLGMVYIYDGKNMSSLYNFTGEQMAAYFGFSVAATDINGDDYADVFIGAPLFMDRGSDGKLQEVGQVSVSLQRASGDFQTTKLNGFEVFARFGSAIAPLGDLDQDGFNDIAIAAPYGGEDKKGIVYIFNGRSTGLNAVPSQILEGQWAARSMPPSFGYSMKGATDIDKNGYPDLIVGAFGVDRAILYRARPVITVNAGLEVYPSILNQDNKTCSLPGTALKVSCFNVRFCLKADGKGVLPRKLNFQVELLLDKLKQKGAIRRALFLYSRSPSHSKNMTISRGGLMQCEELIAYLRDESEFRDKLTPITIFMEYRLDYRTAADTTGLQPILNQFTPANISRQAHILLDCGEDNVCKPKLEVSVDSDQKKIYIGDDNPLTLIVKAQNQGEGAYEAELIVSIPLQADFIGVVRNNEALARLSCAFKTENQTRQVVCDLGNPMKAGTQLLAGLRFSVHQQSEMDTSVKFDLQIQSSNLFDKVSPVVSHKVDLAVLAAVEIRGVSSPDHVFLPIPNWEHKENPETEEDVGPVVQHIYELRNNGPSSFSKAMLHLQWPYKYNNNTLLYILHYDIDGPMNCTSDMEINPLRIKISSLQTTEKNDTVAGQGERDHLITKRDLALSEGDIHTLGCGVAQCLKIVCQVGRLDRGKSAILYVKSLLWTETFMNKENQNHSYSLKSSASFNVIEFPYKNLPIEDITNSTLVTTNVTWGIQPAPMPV
T1 sequence (P05106 27-718 limits assumed): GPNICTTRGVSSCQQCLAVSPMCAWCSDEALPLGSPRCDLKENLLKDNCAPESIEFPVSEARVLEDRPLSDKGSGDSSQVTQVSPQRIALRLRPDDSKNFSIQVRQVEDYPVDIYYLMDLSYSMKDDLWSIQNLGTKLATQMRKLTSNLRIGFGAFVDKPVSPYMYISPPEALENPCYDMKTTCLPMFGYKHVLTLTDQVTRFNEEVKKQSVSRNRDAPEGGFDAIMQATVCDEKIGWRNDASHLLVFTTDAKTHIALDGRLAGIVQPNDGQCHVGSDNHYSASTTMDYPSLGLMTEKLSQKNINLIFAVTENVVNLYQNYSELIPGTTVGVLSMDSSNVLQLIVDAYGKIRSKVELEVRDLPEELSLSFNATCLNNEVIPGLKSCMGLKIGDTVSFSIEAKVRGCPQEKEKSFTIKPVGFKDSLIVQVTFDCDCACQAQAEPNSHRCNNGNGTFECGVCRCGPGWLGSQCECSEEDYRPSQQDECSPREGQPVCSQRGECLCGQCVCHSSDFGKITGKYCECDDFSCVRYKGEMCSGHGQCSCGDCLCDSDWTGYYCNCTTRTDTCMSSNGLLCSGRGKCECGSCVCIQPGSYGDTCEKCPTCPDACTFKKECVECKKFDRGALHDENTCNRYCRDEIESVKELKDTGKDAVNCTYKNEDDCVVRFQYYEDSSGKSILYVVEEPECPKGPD
Experimental: FIG. 1. […] The isolated EGF-like domain of Wt NRG1 was immobilized to wells of 96-well titer plates. The concentrations of the coating solution are shown. Soluble recombinant integrin αvβ3 (5 μg/ml) was added to the wells in the presence of 1 mM Mn^2+ and incubated for 2 h at room temperature. After washing the wells bound αvβ3 was determined by using anti-β3 antibody and HRP-conjugated anti-mouse IgG. The data is shown as means+/−SEM of triplicate experiments. FIG. 7. […] Wt GST-NRG1 (175-222) and the 2KE mutant of GST-NRG1 (175-222) were immobilized to wells of 96-well titer plates. The concentrations of the coating solution are shown. Soluble recombinant integrin αvβ3 (5 μg/ml) was added to the wells in the presence of 1 mM Mn^2+ and incubated for 2 h at room temperature. After washing, the wells bound αvβ3 was determined by using anti-β3 antibody and HRP-conjugated anti-mouse IgG. The data are shown as means+/−SD of triplicate experiments. […] Direct αvβ3-NRG (175-222) interaction: It has been well established that the EGF-like domain of the NRGs is sufficient to specifically activate ErbB receptors and to induce cellular responses in culture. To generate GST-NRG1 EGF-like domain fusion protein, the cDNA fragment of the EGF-like domain of NRG1 was amplified by PCR and subcloned into PGEX-2T vector to generate GST-NRG1 EGF-like domain fusion protein (designated GST-NRG1 (175-222)) in E. coli BL21. The fusion protein was purified in glutathione-affinity chromatography. The affinity resin was extensively washed with 1% Triton X-114 to remove endotoxin before eluting the protein. It was tested, in the present invention, whether soluble recombinant integrin αvβ3 binds to GST-NRG1 (175-222) that is immobilized to plastic wells (ELISA-type assay). […] Cell adhesion and soluble integrin binding assays were performed as described previously (Mori, et al., 2008). NRG1α (175-241) was immobilized to wells of 96-well microtiter plate overnight at 4° C. in 0.1 M carbonate buffer, pH 2 9.4. Remaining protein binding sites were blocked by incubating with 200 μl of 0.1% BSA in PBS for 60 min at room temperature. Wells were then incubated with soluble integrin αvβ3 in 50 μl in Hepes-Tyrode's buffer supplemented with 1 mM Mn2+ at room temperature for 60 min. After rinsing the wells with the same buffer, bound integrins were determined by horseradish peroxidase (HRP)-conjugated anti-His tag mouse IgG and substrate 3,3′,5,5′-tetramethylbenzidine of HRP.

[1] = target: T2, human integrin αvβ3 on K562 erythroleukemic cells (αvβ3-K562) (human, UniProt P06756 31-1048; P05106 27-788); assay: cell adhesion of αvβ3-K562 cells
T2 construct: whole, on cells; also called K562 cells that express human αvβ3
T2 sequence (P06756 31-1048, chain 1 of 2): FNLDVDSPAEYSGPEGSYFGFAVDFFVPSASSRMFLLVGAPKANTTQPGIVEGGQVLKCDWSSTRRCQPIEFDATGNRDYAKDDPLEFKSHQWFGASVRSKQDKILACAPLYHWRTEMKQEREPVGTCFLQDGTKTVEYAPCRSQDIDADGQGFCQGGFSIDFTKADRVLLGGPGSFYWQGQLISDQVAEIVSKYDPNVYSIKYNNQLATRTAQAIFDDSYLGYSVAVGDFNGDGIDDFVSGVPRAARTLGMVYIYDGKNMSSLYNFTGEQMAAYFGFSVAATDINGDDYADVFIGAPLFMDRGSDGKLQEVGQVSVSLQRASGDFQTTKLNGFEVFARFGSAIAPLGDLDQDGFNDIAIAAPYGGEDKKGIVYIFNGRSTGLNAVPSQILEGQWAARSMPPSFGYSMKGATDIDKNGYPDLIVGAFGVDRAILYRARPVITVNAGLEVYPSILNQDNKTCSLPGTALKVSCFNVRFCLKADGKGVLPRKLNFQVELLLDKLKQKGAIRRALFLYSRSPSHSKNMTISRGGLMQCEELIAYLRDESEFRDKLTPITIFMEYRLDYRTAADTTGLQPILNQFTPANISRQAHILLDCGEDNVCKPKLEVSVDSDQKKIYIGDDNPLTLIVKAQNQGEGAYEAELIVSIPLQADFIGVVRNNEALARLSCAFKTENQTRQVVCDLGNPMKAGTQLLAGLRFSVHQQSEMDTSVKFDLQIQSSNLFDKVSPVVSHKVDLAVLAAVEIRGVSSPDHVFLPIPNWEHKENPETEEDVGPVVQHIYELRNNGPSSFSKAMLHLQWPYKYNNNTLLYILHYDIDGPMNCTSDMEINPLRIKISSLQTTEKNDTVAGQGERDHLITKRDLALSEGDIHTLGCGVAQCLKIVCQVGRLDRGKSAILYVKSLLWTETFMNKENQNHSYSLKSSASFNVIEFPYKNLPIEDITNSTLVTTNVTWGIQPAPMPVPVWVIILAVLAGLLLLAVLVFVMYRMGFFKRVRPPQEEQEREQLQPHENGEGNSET
T2 sequence (P05106 27-788, chain 2 of 2): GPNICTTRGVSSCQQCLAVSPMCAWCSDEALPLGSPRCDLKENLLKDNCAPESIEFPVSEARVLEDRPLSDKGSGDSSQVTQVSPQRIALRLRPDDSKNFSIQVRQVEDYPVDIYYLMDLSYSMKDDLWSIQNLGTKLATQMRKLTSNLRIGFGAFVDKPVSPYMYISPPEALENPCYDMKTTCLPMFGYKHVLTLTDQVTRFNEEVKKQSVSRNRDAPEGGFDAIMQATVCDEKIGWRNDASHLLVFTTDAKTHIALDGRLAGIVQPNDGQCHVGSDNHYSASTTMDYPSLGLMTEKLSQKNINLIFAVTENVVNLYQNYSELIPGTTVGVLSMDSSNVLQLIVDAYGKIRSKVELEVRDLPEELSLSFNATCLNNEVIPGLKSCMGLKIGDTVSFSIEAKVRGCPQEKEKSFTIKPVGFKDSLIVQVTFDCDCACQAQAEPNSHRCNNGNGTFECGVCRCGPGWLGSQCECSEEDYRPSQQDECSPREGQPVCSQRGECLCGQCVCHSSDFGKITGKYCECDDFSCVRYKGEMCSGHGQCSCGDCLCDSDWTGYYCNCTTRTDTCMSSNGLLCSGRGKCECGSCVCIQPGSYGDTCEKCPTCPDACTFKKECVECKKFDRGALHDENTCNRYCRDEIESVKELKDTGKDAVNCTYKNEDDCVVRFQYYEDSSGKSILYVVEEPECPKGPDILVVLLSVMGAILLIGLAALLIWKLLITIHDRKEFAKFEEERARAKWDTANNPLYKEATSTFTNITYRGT

[2] = target: T2, human integrin αvβ3 on K562 …; assay: cell adhesion of αvβ3-K562 cells to immobilised 3KE (175-222)
[3] = target: T3, human integrin α6β4 on CHO cells (α6β4-CHO) (human, UniProt P23229 24-1130; P16144 28-1822); assay: cell adhesion of α6β4-CHO cells to immobilised 3KE (175-222)
T3 construct: whole, on cells; also called keratinocyte integrin α6β4

[4] = tested on: mammary intraepithelial neoplasia-outgrowth (MIN-O); assay: Outgrowth of precancer (MIN-O) in FVB mice; assay type: in vivo; details: 200 ng/day/mouse intraperitoneally, 5 days a week for 4 weeks; P=0.0355
Experimental: FIG. 16. Inhibitory effect of daily intraperitoneal injection of 3KE (175-222) on the outgrowth of precancer (MIN-O) in FVB mice. MIN-O was transplanted into fat pads of FVB mice (two per mice) and 3KE (175-222) (200 ng/mouse/day) was injected 5 days a week for 4 weeks starting day 0. After 28 days, mice were sacrificed and the dimensions of tumors were measured. Since MIN-O grows as a thin layer, the two-dimensional size was calculated and the thickness was ignored. P=0.0355 by ANOVA between control and 3KE (175-222).
To study the effect of 3KE (175-222) on the premalignant cancer, transplantable mammary intraepithelial neoplasia-outgrowth (MIN-O) tissue lines, which were derived from hyperplastic mammary lesions in young Tg(MMTV-PyV-mT) females (Maglione et al. 2004), were used. The resulting lesions mimic the biological behavior, molecular biology, and histopathology of human ductal carcinoma in situ (Maglione et al. 2004). One mm^3 pieces of the 8w-BMINO tissues (Maglione et al. 2004) were transplanted to gland-cleared no. 4 mammary fat pads of 3-week-old FVB females bilaterally.

[5] = target: T4, Recombinant human ErbB3 Fc chimera (R&D Systems) (human, UniProt P21860 20-643); assay: ELISA-type assay, ErbB3 Fc coated at 1 µg/ml, bound GST fusion detected with anti-GST HRP
T4 construct: Bought from R&D Systems; also called recombinant soluble ErbB3 Fc fusion protein; recombinant soluble ErbB3; Fc part of the bought chimera not given; not described
T4 sequence (P21860 20-643, change not shown): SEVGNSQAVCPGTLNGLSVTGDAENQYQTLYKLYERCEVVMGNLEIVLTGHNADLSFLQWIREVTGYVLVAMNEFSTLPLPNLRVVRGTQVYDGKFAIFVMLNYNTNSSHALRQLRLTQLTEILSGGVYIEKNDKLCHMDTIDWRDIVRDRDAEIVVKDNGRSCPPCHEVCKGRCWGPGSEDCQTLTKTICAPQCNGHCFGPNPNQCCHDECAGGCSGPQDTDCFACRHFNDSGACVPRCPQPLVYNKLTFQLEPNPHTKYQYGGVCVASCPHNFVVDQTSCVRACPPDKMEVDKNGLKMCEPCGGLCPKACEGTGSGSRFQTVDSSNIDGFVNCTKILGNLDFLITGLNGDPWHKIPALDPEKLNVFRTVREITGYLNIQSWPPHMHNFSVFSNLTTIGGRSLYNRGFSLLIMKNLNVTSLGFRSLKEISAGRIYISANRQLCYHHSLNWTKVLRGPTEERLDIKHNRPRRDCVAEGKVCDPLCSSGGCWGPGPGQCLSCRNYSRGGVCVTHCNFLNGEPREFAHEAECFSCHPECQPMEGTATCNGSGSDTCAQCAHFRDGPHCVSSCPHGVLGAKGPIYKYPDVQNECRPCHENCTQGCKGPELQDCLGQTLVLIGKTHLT

[6] = target: T2, human integrin αvβ3 on K562 …; assay: cell adhesion to immobilised NRG1α

## 2KE (175-222): NRG1 (175-222) with Lys185/Lys187 mutated to Glu; GTSHLVKCAEEEETFCVNGGECFMVKDLSNPSRYLCKCQPGFTGARCT (SEQ ID NO:12) (integrin-binding site within human neuregulin, 2KE mutant, short version)
Integrin αvβ3
  Binding of soluble recombinant integrin αvβ3 to the immobilized protein: much lower affinity to αvβ3; also recorded: did not

B1: GST-NRG1 (175-222), wild type EGF-like domain of human neuregulin 1 as GST fusion protein (ligand)
chain: {GST}-GTSHLVKCAEKEKTFCVNGGECFMVKDLSNPSRYLCKCQPGFTGARCT
modifications: not fully specified; cysteine pairing not given here
notes: Made in E. coli as GST fusion (pGEX-2T); not shown: glutathione S-transferase (GST) tag as encoded by the pGEX-2T vector, N-terminal
[1]
  binding result: binds

## GTSHLVECAEEEETFCVNGGECFMVKDLSNPSRYLCKCQPGFTGARCT (ligand, not shown: a dimerising Fc or GST; large carriers; small tags and cut ends) [3KE (175-222) mutant of NRG1 (Lys181/Lys185/Lys187 to Glu), GST fusion protein]
[2]
  binding result: no binding
[3]
  binding result: no binding

B2: γC399tr: Control protein in the MIN-O experiment (protein)
chain: KDCQDIANKGAKQSGLYFIKPLKANQQFLVYCEIDGSGNGWTVFQKRLDGSVDFKKNWIQYKEGFGHLSPTGTTEFWLGNEKIHLISTQSAIPYALRVELEDWNGRTSTADYAMFKVGPEADKYRLTYAYFAGGDAGDAFDGFDFGDDPSDKFFTSHNGMQFSTWDNDNDKFEGNCAEQDGSGWWMNKCHAGHLNGVYYQGGTYSKASTPNGYDNGIIWATWKTRWYSMKKTTMKIIPFNRLTIGEGQQ
[4]
  Outgrowth of MIN-O in FVB mice: did not affect the outgrowth of MIN-O

B3: GST-NRG1α (175-241), wild type (EGF-like motif and α domain of human neuregulin 1α as GST fusion protein) (ligand)
chain: GTSHLVKCAEKEKTFCVNGGECFMVKDLSNPSRYLCKCQPGFTGARCTENVPMKVQNQEKAEELYQK
notes: not shown: glutathione S-transferase (GST) tag as encoded by the pGEX-2T vector, N-terminal
[5]
  binding result: binds
[6]
  binding result: binds

B4: 3KE (175-241) mutant of NRG1α (Lys181/Lys185/Lys187 to Glu), GST fusion protein (ligand, not shown: a dimerising Fc or GST; large carriers; small tags and cut ends)
chain: GTSHLVECAEEEETFCVNGGECFMVKDLSNPSRYLCKCQPGFTGARCTENVPMKVQNQEKAEELYQK
[5]
  binding result: binds
